Data taken from US20150362496A1 (ONCOMATRYX BIOPHARMA S L, published 2015).

B1: peptide YNYGTMESYQTEAPR (peptide)
peptide: YNYGTMESYQTEAPR
notes: 15-residue peptide of the proCOL11A1 VAR region; also called the mentioned peptide
B2: 1E8.33 monoclonal antibody (antibody, V domains shown)
VH: EVQLQESGPELVKTGSSVKISCKASGYSFTGYYMHWVKQSQGKSLEWIGYINCYNGATSYNRNFKGKATFTVDTSSSTAYMQFNSLTSGDSAVYYCAIWDYEFHVMDYWGQRTSLTVSS
VL: ENVLTQSPAIMSASLGEKVTMSCRASSSVNYMYWYQQKSDASPKLWIYYTSNLAPGVPARFSGSGSGNSYSLTISSMEGEDADTYYCQQFTSSPWTFGGGTKLEIK
notes: they are variable domains only; also called 1E8.33 mAb; 1E8.33 clone

Experiments:
[1] = target: B2; experiment: peptide blocking of 1E8.33 in Western blot of A204 cells
Protocol: FIG. 8: 1E8.33 mAb blocking test for locating the epitope, performed by means of Western blot of A204 cells. The detection was performed with a mixture of the antibody and different peptides. Lane 1: negative control without antibody. Lane 2: FQEYNYG. Lane 3: […]. Lane 4: […]. Lane 5: […]. Lane 6: […]. Lane 7: positive control with the unblocked 1E8.33 mAb. Complete blocking was observed only in lane 6.

[2] = target: T1, proCOL5A1 expressed in SAOS-2 osteosarcoma cells (UniProt P20908 38-1838, limits assumed); experiment: immunocytochemistry on SAOS-2 cells
T1 construct: Endogenous protein in cells, stained by immunocytochemistry
T1 sequence (P20908 38-1838 limits assumed): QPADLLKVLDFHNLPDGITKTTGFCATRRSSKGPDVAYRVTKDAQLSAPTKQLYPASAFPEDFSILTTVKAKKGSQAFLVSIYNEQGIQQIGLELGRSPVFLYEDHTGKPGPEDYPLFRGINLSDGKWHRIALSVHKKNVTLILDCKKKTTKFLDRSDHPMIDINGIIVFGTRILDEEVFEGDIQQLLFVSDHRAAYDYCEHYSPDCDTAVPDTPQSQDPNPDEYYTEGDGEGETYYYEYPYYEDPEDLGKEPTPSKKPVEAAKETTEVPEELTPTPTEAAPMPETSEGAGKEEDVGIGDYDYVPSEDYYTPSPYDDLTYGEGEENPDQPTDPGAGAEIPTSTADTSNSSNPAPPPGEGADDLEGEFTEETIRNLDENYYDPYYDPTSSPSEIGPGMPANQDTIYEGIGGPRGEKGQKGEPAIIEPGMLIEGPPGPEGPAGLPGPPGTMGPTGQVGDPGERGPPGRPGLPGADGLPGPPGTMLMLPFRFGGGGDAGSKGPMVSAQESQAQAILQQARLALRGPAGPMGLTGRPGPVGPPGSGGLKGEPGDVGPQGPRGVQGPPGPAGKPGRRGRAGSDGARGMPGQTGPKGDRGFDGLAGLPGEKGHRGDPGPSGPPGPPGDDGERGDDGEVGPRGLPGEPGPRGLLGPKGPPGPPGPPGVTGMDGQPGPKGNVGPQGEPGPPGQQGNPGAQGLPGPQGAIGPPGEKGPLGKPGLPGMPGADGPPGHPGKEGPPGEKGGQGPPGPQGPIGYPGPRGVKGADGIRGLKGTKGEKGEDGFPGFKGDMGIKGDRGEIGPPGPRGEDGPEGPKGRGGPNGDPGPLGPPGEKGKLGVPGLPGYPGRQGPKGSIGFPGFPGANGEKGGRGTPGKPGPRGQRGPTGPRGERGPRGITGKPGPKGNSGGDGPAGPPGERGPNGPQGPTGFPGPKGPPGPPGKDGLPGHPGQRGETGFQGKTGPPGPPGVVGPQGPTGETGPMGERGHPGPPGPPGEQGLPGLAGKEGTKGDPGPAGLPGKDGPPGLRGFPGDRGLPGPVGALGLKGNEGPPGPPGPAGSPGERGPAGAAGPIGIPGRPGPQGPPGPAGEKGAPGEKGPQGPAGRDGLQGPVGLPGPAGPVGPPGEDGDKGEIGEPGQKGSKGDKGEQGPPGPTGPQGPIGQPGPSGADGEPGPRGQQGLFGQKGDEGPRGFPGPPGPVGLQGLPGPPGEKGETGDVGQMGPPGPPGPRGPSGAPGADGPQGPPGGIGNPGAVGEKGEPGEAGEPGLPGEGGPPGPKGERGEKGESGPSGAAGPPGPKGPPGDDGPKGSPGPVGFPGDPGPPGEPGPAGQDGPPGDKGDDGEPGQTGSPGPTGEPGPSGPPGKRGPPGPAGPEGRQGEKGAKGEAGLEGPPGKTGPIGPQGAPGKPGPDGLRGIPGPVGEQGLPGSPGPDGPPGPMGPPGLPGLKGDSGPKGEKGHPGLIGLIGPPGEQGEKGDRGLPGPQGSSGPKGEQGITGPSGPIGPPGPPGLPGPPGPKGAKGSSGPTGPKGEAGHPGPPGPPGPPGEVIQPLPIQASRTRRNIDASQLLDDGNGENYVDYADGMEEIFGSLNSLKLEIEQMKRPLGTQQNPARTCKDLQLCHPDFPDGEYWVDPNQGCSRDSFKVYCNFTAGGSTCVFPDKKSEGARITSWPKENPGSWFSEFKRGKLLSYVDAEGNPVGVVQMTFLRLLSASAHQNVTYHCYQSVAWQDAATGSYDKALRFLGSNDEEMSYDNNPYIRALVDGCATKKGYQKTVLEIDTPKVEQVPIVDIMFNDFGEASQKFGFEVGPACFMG

| Binder | binding result [1] | binding result [2] |
| --- | --- | --- |
| B1 | binds | – |
| B2 | – | no binding |
